Reference: US6383484

Tests used:
[1] = biological target: VEGF-DΔNΔC (human VEGF-D residues 93 to 201, FLAG-tagged at the N-terminus) (human) (UniProt O43915); assay: cell-based or functional assay
[2] = biological target: VEGF-DΔNΔC (human VEGF-D residues 93 to 201, FLAG-tagged at the N-terminus) (human) (UniProt O43915); assay: SPR (BIAcore 3000), antibody immobilized, human VEGF-DΔNΔC flowed at 41-689 nM, 1:1 Langmuir model
[3] = biological target: T1, chimeric protein consisting of the extracellular domain of human VEGFR-1 and the Fc portion of human IgG (human, UniProt P17948 27-758); assay: plate receptor-binding assay, VEGFR-1/Ig coated, detection with biotinylated M2
T1 construct: extracellular domain; also called VEGFR-1/Ig; not shown: Fc portion of human IgG
T1 sequence (P17948 27-758, change not shown): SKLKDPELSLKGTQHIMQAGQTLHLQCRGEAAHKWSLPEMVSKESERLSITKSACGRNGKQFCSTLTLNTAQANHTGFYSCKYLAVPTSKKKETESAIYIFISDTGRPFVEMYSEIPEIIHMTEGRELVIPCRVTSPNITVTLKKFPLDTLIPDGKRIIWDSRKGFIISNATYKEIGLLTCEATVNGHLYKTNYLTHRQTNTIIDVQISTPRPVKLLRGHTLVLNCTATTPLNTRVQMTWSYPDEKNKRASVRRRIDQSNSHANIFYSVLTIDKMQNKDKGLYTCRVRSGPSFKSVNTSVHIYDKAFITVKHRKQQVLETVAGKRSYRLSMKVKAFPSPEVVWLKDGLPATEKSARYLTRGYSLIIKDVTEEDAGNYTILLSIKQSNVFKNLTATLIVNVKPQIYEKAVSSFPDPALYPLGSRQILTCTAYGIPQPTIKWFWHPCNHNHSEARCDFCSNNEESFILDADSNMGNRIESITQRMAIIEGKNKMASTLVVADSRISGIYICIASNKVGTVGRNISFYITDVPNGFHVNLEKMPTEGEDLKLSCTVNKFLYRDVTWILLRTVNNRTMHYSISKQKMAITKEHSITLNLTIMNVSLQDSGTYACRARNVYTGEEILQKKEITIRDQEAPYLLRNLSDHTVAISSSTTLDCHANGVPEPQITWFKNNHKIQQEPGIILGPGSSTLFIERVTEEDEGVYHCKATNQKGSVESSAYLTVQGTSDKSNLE

Molecule | response of Ba/F3-NYK-EpoR cells to VEGF-D?N?C (3H-thymidine incorporation) [1] | Kd [2] | koff [2] | kon [2] | binding result [3]
monoclonal antibody 4E10 | 80 µg/mL | 0.0571 µM | 0.00445 s⁻¹ | 78000 M⁻¹ s⁻¹ | 
VEGF-DΔNΔC (human VEGF-D residues 93 to 201, FLAG-tagged at the N-terminus) (ligand, also called VEGF-D?N?C; human VEGF-D?N?C; not shown: FLAG octapeptide (Sigma) at the N-terminus; any vector-de) FYDIETLKVIDEEWQRTQCSPRETCVEVASELGKSTNTFFKPPCVNVFRCGGCCNEESLICMNTSTSYISKQLFEISVPLTSVPELVPVKVANHTGCKCLPTAPRHPYS |  |  |  |  | no binding (tested: 7.3 µg/ml VEGF-DΔNΔC)
